The text below walks through data of patent US20190352411A1 (ALLIGATOR BIOSCIENCE, published 2019).

For assay [1], the target named is T1, cynomolgus CD137 (ELISA, Example 15) (cynomolgus, UniProt A9YYE7 24-186).
T1 construct: Reagent not described; also called cyno CD137
Put plainly: ELISA, cynomolgus CD137.

In assay [2] the target is T2, recombinant human CD137-Fc (R&D #838-4B) (human, UniProt Q07011 24-186).
T2 construct: Bought protein coated on ELISA plates; also called CD137 (R&D #838-4B); not shown: Fc part of the commercial fusion protein; not described
T2 sequence (Q07011 24-186 limits assumed): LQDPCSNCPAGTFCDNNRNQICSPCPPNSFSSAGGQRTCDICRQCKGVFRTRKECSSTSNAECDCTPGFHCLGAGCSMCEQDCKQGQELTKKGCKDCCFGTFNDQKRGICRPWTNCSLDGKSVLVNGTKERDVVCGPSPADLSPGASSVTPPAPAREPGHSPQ
Put plainly: ELISA, coated human CD137-Fc.

The target in assay [3] is T2, recombinant human CD137-Fc (R&D #838-4B). Put plainly: ELISA, coated CD137 (R&D #838-4B).
Assay [4] has the same target. Put plainly: ELISA, coated human CD137-Fc; mean.
Assay [5] deals with T3, cynomolgus CD137 on transfected CHO cells (CHO-cyCD137) (cynomolgus (Macaca fascicularis); human).
T3 construct: extracellular domain;domain: transmembrane and intracellular part; also called cyno CD137
T3 sequence (P25942 other isoform, or with tags, fused parts or gaps): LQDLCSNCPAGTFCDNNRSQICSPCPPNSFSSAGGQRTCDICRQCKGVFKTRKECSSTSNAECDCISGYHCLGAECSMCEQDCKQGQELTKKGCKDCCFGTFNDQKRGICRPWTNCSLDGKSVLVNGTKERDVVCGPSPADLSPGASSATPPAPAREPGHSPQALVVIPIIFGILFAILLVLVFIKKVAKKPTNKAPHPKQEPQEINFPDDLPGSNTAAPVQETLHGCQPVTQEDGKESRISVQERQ
The assay is described as follows: flow cytometry; EC50 on CHO-cyCD137 against EC50 on CHO-huCD137. The method, then: (§1) Binding and EC50 was determined using flow cytometric of CHO cells transfected with human CD137, cynomolgus CD137 or empty vector. The extracellular part of human or cynomolgus CD137 was fused to the transmembrane and intracellular part of human CD40 and cloned into pcDNA3.1. The vector was subsequently stably transfected into CHO cells. […] CD137-transfected and empty vector-transfected cells were incubated with CD137 antibodies for at least 1 h at 4° C. to saturate the binding. In order to minimize antibody internalization, 0.05% sodium azide was used in the incubation buffer and all work was performed on ice. The CD137 antibodies were detected using PE-conjugated anti-hIgG antibody (109-115-098, Jackson Immunoresearch laboratories), incubated for 30 min at 4° C. Directly after staining the cells were fixed with a paraformaldehyde solution (10× concentrate BD CellFIX, BD biosciences #340181). Cells were analyzed by flow cytometry using FACSVerse (BD Biosciences). The median fluorescence intensity (MFI) for each sample was determined and the dose response data was analysed using Graph Pad Prism.
(§2) MFI data was normalized for each antibody, where 0% is defined as the lowest value and 100% is the highest value in the dose titration for each antibody.

Assay [6] addresses T4, 1554: Human CD137 with mouse domains 3B, 4A and 4B (aa 97-159) (human; mouse, UniProt P20334 96-159).
T4 construct: domain: domains 3B, 4A and 4B (aa 97-159); Human/mouse chimera transiently expressed on FreeStyle 293-F cells
Put plainly: flow cytometry on transfected 293-F cells, human/mouse CD137 chimera. The method, then:
The ability of each antibody to bind to a panel of human/mouse CD137 chimeras expressed on the surface of transfected cells was analyzed by flow cytometry.
The chimeras were designed by exchanging domains or modules of the human CD137 with the corresponding mouse domain. Genes of CD137 human/mouse chimeras were synthesized (GenScript) and constructs cloned into pcDNA3.1 vector (Invitrogen) and transiently transfected into FreeStyle 293-F cells (Invitrogen). The transfected cells were incubated with CD137 antibodies and control antibodies, followed by incubation with anti-human IgG-PE (Jackson Immunoresearch) for detection and analyzed with FACS Verse (BD Biosciences). Binding to the different chimeric constructs was calculated as relative MFI compared to the binding of the isotype control, followed by normalization to the full-length human CD137 construct to minimize the effect of affinity differences between individual antibodies.

Assay [7] concerns the target T3, cynomolgus CD137 on transfected CHO …. The assay is described as follows: flow cytometry on CHO-cyCD137 cells; 95% confidence interval of the EC50.
For assay [8] the target is unchanged. Described as above. The method, then:
as §1, §2
The source holds these as a separate data set.

In assay [9] the target is T5, Human CD137 (R&D systems) (human, UniProt Q07011 24-186, limits assumed).
T5 construct: also called CD137 coated on the chip surface
T5 sequence (Q07011 24-186 limits assumed): as the sequence (Q07011 24-186 limits assumed) above
Put plainly: SPR (Biacore), human CD137 immobilised, bivalent antibody as analyte, 1:1 Langmuir model. The method, then:
Human CD137 (R&D systems) was immobilized to the Biacore™ sensor chip, CMS, using conventional amine coupling. […] The association was followed for 5 minutes and the dissociation for 15 minutes. Regeneration was performed twice using 10 mM Glycine pH 1.7 for 30 seconds. The kinetic parameters and the affinity constants were calculated using 1:1 Langmuir model.
The affinities of the antibodies were in the nanomolar to sub-nanomolar range (Table 3) measured using bivalent antibodies flowed over CD137 coated on the chip surface.

For assay [10], the target named is human CD137 (Acro Biosystems #41B-H5227) (human, UniProt Q07011 24-186). The assay is described as follows: Octet (BLI), antibody amine-coupled to ARG2 biosensor, soluble CD137 as analyte, 1:1 model. Here is the method: (§3) Materials and method CD137 affinity was determined using the Octet Red 96 platform (ForteBio). […] 7 2-fold serial dilutions of CD137 (Acro Biosystems #41B-H5227 and #41B-C52H4) from 100 nM was prepared in 1× kinetic buffer (ForteBio #18-1092). Association was measured for 180 s followed by dissociation for 180 s in 1× kinetic buffer. 10 mM Glycine pH 2.2 was used for regeneration.
Sequence of human CD137 (Acro Biosystems #41B-H5227) (Q07011 24-186 limits assumed): as above
(§4) Data generated was referenced by reference well subtraction (1188), the baseline was aligned with the y-axis, inter-step correlation by alignment against association was performed and the data was smoothed by a Savitzky-Golay filtering in the data analysis software (v.9.0.0.14). The processed data was fitted using a 1:1 Langmuir binding model with X² as a measurement of fitting accuracy.

Assay [11] deals with cynomolgus CD137 (Acro Biosystems #41B-C52H4) (cynomolgus, UniProt A9YYE7 24-186). The assay is described as above. Here is the method:
as §3, §4

In assay [12] the target is T6, human CD137 on transfected CHO cells (CHO-huCD137) (human).
T6 construct: domain: transmembrane and intracellular part
T6 sequence (P25942 other isoform, or with tags, fused parts or gaps limits assumed): as the sequence (P25942 other isoform, or with tags, fused parts or gaps) above, with L4P, S19N, K50R, I66T, S67P, Y69F, E75G, A149V counted along it
Put plainly: flow cytometry on CHO cells transfected with human CD137, PE anti-hIgG detection, MFI normalised 0-100% for each antibody. Here is the method: as §1, §2

Like-named read-outs stand apart in the source and are kept apart here.

Sequence of cynomolgus CD137 (Acro Biosystems #41B-C52H4) (A9YYE7 entry or part of it): as the sequence (Q07011 24-186 limits assumed) above, with P4L, N19S, R50K, T66I, P67S, F69Y, G75E, V149A counted along it
T1 sequence (A9YYE7 entry or part of it): as the sequence (Q07011 24-186 limits assumed) above, with P4L, N19S, R50K, T66I, P67S, F69Y, G75E, V149A counted along it
T4 sequence (P20334 other isoform, or with tags, fused parts or gaps limits assumed): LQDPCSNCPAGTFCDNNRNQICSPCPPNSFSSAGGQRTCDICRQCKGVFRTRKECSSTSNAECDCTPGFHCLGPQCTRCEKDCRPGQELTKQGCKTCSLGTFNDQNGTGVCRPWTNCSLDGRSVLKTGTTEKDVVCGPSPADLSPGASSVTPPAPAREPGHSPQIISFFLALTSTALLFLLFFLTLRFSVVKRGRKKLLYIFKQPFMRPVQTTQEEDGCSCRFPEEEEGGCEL

B1: 1630/1631 (antibody, human IgG4 S228P, kappa, V domains shown)
VH: EVQLLESGGGLVQPGGSLRLSCAASGFTFGYSYMSWVRQAPGKGLEWVSSIGSGSSYTYYADSVKGRFTISRDNSKNTLYLQMNSLRAEDTAVYYCARVYSSPGIDYWGQGTLVTVSS
VL: DIQMTQSPSSLSASVGDRVTITCRASQSISSYLNWYQQKPGKAPKLLIYAASSLQSGVPSRFSGSGSGTDFTLTISSLQPEDFATYYCQQYYTWVPFTFGQGTKLEIKR
notes: the format in each assay is not restated
As for B1, the EC50 is 850 pM in [1]; 410 pM in assay [2]; 400 pM in assay [3]; 270 pM in [4]; 0.12 to 0.16 µg/mL in assay [7]; 550 to 870 pM in assay [8]. Moreover, in assay [5], the “Ratio, cyno:human” value came out at 0.63. Also, the “MFI antibody/isotype control, normalized to full-length human CD137” value in [6] was determined as 0.85. In addition, the results for the Kd in assay [9], in assay [10] and in [11] were 641 pM, 14000 pM and 18000 pM, respectively. The koff in assay [9] was 0.00118 s⁻¹; in assay [10], 0.0023 s⁻¹; in [11] it was 0.0025 s⁻¹. Also, the kon is 1.85e+06 M⁻¹ s⁻¹ in assay [9], 160000 M⁻¹ s⁻¹ in assay [10] and 140000 M⁻¹ s⁻¹ in [11]. Besides, the “EC50 (read off the curve)” value in assay [12] is around 0.2 µg/mL.
